This is an account of results in the DeepSol protein solubility set.

The series in a line: soluble on expression in E. coli; label from the status in PepcDB or PDB records.
For the sequence “MGSDKIHHHHHHMNARKGGVDRSRAEAGMADTLFFFHNPKAGGTSVEDALRSLFPDERCCPRIENDATEHAQRAGRYAGFRGYDFYAGHYGFDIYQAVGSGMAAATNFRWPIDRIVSVYRYFHHIVELSDSQVRDPRFRAVRLAKTLCMDDFVTCDDPAVQLHTHDHHFRQLTGSGWSMANEQDLSAAIRLINQMVWFYVCEHPHESLAWAEEAFCRALPEIPRLNITRPDSASETGLSARACRQLILQNERDIVLYQYALERLIAQVTHEPSRLVA”, the “soluble on expression in E. coli” value is “not soluble”.
Take “MGYVEIIEQPKQRGMRFRYKCEGRSAGSIPGERSTDTTKTHPTIKINGYTGPGTVRISLVTKDPPHRPHPHELVGKDCRDGFYEAELCPDRCIHSFQNLGIQCVKKRDLEQAISQRIQTNNNPFQVPIEEQRGDYDLNAVRLCFQVTVRDPSGRPLRLPPVLSHPIFDNRAPNTAELKICRVNRNSGSCLGGDEIFLLCDKVQKEDIEVYFTGPGWEARGSFSQADVHRQVAIVFRTPPYADPSLQAPVRVSMQLRRPSDRELSEPMEFQYLPDGSLSSGSSLSSPSAGAAPRVLFGEWLLGEISSGCYEGLQWLDEARTCFRVPWKHFARKDLSEADARIFKAWAVARGRWPPSSRGGGPPPEAETAERAGWKTNFRCALRSTRRFVMLRDNSGDPADQHKVYALSGSLSSDSSLSSPSALSPKPRILPWLVSQLDLGQLEGVAWVNKSRTRFRIPWKHGLRQDAQQEDFGIFQAWAEATGAYVPGRDKPDLPTWKRNFRSALNRKEGLRLAEDRSKDPHDPHKIYEFVNGLEHHHHHH”: the “soluble on expression in E. coli” value is “soluble”.
With “MEGQQVILHLPLSQKGPFWTWEPSAPRTLLQVLQDPALKDLVLTCPTLPWHSLILRPQYEIQAIMHMRRTIVKIPSTLEVDVEDVTASSRHVHFIKPLLLSEVLAWEGPFPLSMEILEVPEGRPIFLSPWVGSLQKGQRLCVYGLASPPWRVLASSKGRKVPRHFLVSGGYQGKLRRRPREFPTAYDLLGAFQPGRPLRVVATKDCEGEREENPEFTSLAVGDRLEVLGPGQAHGAQGSDVDVLVCQRLSDQAGEDEEEECKEEAETQSGSCCPSTSLAVSWRRLEHHHHHH”, the “soluble on expression in E. coli” value is recorded as “not soluble”.
With “SGFLEQRLGHCLRQMAEKGLEALLVTHLTNSYYLTGFSGTAATVLITAKRRVLITDSRYTLLAKASVEGFDIIESRTPLKVVAELLEADQIDCLGFEDQVSFSFYQAMQAELSGITLLAQSGFVEHLR”, the “soluble on expression in E. coli” value is on record as “not soluble”.
“MSLTKQVYIIHGYRASSTNHWFPWLKKRLLADGVQADILNMPNPLQPRLEDWLDTLSLYQHTLHENTYLVAHSLGCPAILRFLEHLQLRKQLGGIILVSGFAKSLPTLQMLDEFTQGSFDHQKIIESAKHRAVIASKDDQIVPFSFSKDLAQQIDAALYEVQHGGHFLEDEGFTSLPIVYDVLTSYFSKETREGGSHHHHHH”: the “soluble on expression in E. coli” value is “soluble”.
As to “GPLGSMASKKVCIVGSGNWGSAIAKIVGGNAAQLAQFDPRVTMWVFEEDIGGKKLTEIINTQHENVKYLPGHKLPPNVVAVPDVVQAAEDADILIFVVPHQFIGKICDQLKGHLKANATGISLIKGVDEGPNGLKLISEVIGERLGIPMSVLMGANIASEVADEKFCETTIGCKDPAQGQLLKELMQTPNFRITVVQEVDTVEICGALKNVVAVGAGFCDGLGFGDNTKAAVIRLGLMEMIAFAKLFCSGPVSSATFLESCGVADLITTCYGGRNRKVAEAFARTGKSIEQLEKELLNGQKLQGPETARELYSILQHKGLVDKFPLFMAVYKVCYEGQPVGEFIHCLQNHPEHM”, the “soluble on expression in E. coli” value is given as “soluble”.
As for “MASQVSQMPSSSPLSSNKDEMRPKADFQPSIWGDLFLNCPDKNIDAETEKRHQQLKEEVRKMIVAPMANSTQKLAFIDSVQRLGVSYHFTKEIEDELENIYHNNNDAENDLYTTSIRFRLLREHGYNVSCDVFNKFKDEQGNFKSSVTSDVRGLLELYQASYLRVHGEDILDEAISFTTHHLSLAVASLDHPLSEEVSHALKQSIRRGLPRVEARHYLSVYQDIESHNKALLEFAKIDFNMLQFLHRKELSEICRWWKDLDFQRKLPYARDRVVEGYFWISGVYFEPQYSLGRKMLTKVIAMASIVDDTYDSYATYEELIPYTNAIERWDIKCIDEIPEYMKPSYKALLDVYEEMVQLVAEHGRQYRVEYAKNAMIRLAQSYLVEAKWTLQNYKPSFEEFKANALPTCGYAMLAITSFVGMGDIVTPETFKWAASDPKIIQASTIICRFMDDVAEHKFKHRREDDCSAIECYMEEYGVTAQEAYDVFNKHVESAWKDLNQEFLKPTEMPTEVLNRSLNLARVMDVLYREGDGYTYVGKAAKGGITSLLIEPIAL”, the entry is “soluble”; as for “MKATPAQVPMKERIKEVATDMLIAHGSSGFRFQQIAQALDCTRGNIHYHYRHKHELVEDVTIEYCQRTIGHFDQIWLSDSTLSQKIQLSMQFNEMRYLKRNPQGDTSHPWSLIARMRLESALITPAAREALARYSHELQRSVVAGVRRAVEKGELRPDTPVEMVALPIIEMANSADPITRDAGRFDRLRQMYQAVDRLIHDAYGMAGHRPAP”, “not soluble”; as for “MQTLGFRRPNQVREAVYRHLKDLLLSGRFSPGERLSEPLLAQELGVSRTPVREALMRLAEEGLVELVPGKGARVRVFAPEEVEEVYGVRALLEGEAAREAALRATPWELAELERLLQAIDEAPREDYPEQMRRDLEFHRALVRLSGNRTLYRLYEDLLATLALARSALPTLSQDEATRREHRAILEALLRRDPEEARRAVEAHVFRFRDLVVGRLREEGG”, “soluble”.
Turning to “NKMAMIDLAKLFLASKITAIEFSERICVERRRLYGVKDLSPNILNCGEELFMAAERFEPDADRANYEIDDNGLKVEVRSILEKFKLHHHHH”, the “soluble on expression in E. coli” value is “soluble”.
For the sequence “MSDTPQAILLMGPTASGKTGLALELARRFPVEIVSVDSALVYRDMDIGTAKPTAEEMAACPHHLIDVISPLQSYSAAQFHADANRLIADIQARGKLPLLVGGTMLYYKALLEGLSDLPQADAALRAELDADAALLGWPAMHARLAELDPATASRLNPNDSQRIHRALEVCLLSGKPMSELIAQGKEAAAGFRFLPLALVPRERGWLHARIAERFRIMLEQGFLDEVSRLRAKYPELTLNLPSMRCVGYRQAWEHQDGLYGHDEFVERGVAATRQLAKRQLTWTRSLDAIPVDAQRDGLAGLLGDAVDDFLAGRPPAESLRYAGDF”, the “soluble on expression in E. coli” value is reported as “soluble”.
For the sequence “GPGSMLRKVTSPYKVSIRRTAASVTAADSKKAILRLIRFDPETNKQRVESYEYDKHHDYMVLDLITAVKAHQDPTLAFRASCCEGVCGSCAMNINGVNSLACITFSQQVTTVGPLPNFPVIKDFVVDLRHFFRQYAYIRPFVRNVNLDRSRLDNIVERYKTITKVIHGVPSDDEAQLAQLESKSGAQTDVMALLQLLDAVCESGNVTHLIRTLEALQERGMQLDQGKVKALIEETLQNYKKRKLGA”, the “soluble on expression in E. coli” value is “not soluble”.
As for “MRAVWVLGIDTSCDDTGVGLVRDGKVVVNLVASQVRLHEAFGGVVPELASREHLKALPLLVERALAEAGLRPKDLDLVAATRGPGLIGALLVGYTFAKGMAFALDRPFYAVHHLEGHIAAAWPEGLPPPFLALVASGGHTHLYEVLDLGRYRLLGATRDDAAGEAFDKVARLLGLGFPGGPEVERLAEEAEEAIPFPVPLRGQEGYDFSFSGLKTKALHLVEKGLPKAALAKGFQEAAIAHLAEVVLKAAKDTGHRVLLVAGGVAANRALQERFKEAGLEVHFPPRGLSQDNGAMIALAAWRRHQRGFPPSPLSLGATAYWPLEEA”, the entry is “soluble”; as for “MRSSQAIDFERIPEMEDKWRKEITAMTVTLQDKRKAIQNDEILRGVHPKSHGCLDAEFTVNRDIAPQFQVGLFAQPGKCFRARIRYSNADVLKRADLEKGQDATGARFLNHGSRGMAIKVLDVGAPVLLEDGCARNQDFLMVNTPEFAFRNVRDYLRLTKALCASADGADPLLFFLPGELLKRGMMDMSGSLLPAPAGEPPQNAGLRALFEANRAFFDDFDAEDMQGVISAAGVVGKIQSTPVRNPLFAPYFSAASFRFGKDRVMRFSVVPLQSEEMAADMASDAFEDFSDDYLSQALALSVATNEPIKLSFRIQIAHEEDIVNDIDGMIENAAKTWDEDQFSHTEVAQITINPPCPSAELVDTCKPLLFTPWHAVVDFEPLGGINRLRKPVYSTSAAFRRSVLEHHHHHH”, “not soluble”.
Turning to “MSEEKQTVEQNETEEQEIIEEQAAADEQQEETNESELLQNQINELQGLLEEKENKLLRVQADFENYKRRSRLEMEASQKYRSQNIVTDLLPALDSFERALQVEADNEQTKSLLQGMEMVHRQLVEALKKEGVEAIEAVGQEFDPNLHQAVMQAEDENYGSNIVVEEMQKGYKLKDRVIRPSMVKVNQ”, the “soluble on expression in E. coli” value is reported as “not soluble”.
Then “MSLEKKITPSELELNEFIKIINEMSGIDLTDKKNILALKLNKFLEGTNTKNFSEFLGKLKSNRQLKQETLDFVTIGETYFLRELAQLKEIIYYAKSLEKRVNILSAPCSSGEEVYSLALLAAQNFIKDMYILGVDINSSVIEKAKLGKYQGRTLQRLSESEKRRFFLESEDKFYTINKNELCTCKFELCNVFEEKFSRLGKFDIIASRNMIIYFDHESKLKLMERFHRILNDKGRLYVGNADLIPETIYFKKIFSPRGVYYEKEGHHHHHH”, with “soluble”.
As for “MGSDKIHHHHHHMATSQERLGMNLKKCIQRLRKVANRGPSHKARLENIDEKIVVTGTRGKSGATRWLYEILYGRGRDAFAKITGNRPLVLHDGESHPIERGRRVTLYENEAQLRQYAPVETAIFENQAIGEYTTRTVHQRFTDPDVIFLTNIRSDHLDWLGDTPTQIARSFARTIPDGVTLVVGEQRPTLRAMLKRELEETDVQIRWVLVPKALQNVPGAETILGLNDVLEALGEQPLSDRQIEAYIDEMQVRWTTLADGRVYNAASVNDIDSTEIVRRALDDNDVDTIQPLIYLRPDRRARTASFLSYLDGLYSDDVFEVTHAVGPHAELFDNQASFPVATHDASKSASAVLDAALSPGWPVFIMGNTVADFMRDLEAEIEARRVDSSQGMPEKSTSANEKRAIERPQ”, the entry is “not soluble”; as for “MNKKNICALAVLSGLSFSAMALDCDPNLLPSWQDGASKTAIVNYVDQSTDASKKTFIPEQDRIAVFDNDGTLWSEKPYYFQLAFALDQVKNMAKEHPEWKTQEPFKSVLNNDIKNVFAGGEKALLDIVTATHSGMTVEEYQQTVAQWLEVAKDPHFNKAYTELTYKPMREMVTYLQDHDFKVYIVSGGGVDFMRTWAPEVYGIPEEQIIGSALKYKYDYNNSNPTVTKLGEILTIDDKAGKVENIQHIIGKKPVLAIGNSDGDHAMMQWATSQPNSMAMIVHHTDEAREWKYDRKSSVGHLDKAMDEANQRDNWYLIDMKNEWCTVY”, “soluble”.
As for “MAHHHHHHMCPPKNENERGTEGQPAKNTESADTLKRKLSELYAEEGCQYGENGQPEDTSHLVSSGSAGKKRETATEKRNPEEVREKENAHEKKEDNEVDQNGQTSTSKTNTKKHRSSTDEPPNRRKKKKRKKKFNDNGEVTKPSKQMIRINYLLQASFLMNELNPNISREYIKTMRKLSNKFLIKHDKKFKKLFCKKCNSVLIPSATCKVSVNPLNLRKKKKNKNEEVSSNLNGKLRDEFLVSYRCNYCQHDTKFVYENGLTAPRANGTEAV”, the entry is “soluble”; as for “MGHHHHHHSHMSTVAFHTLGCKVNHYETEAIWQLFKQGGYERTEYEKKADVYVINTCTVTNTGDKKSRQVIRRAVRQNPDAVICVTGCYAQTSPAEIMAIPGVDIVVGTQDREKMLGYIEEFRKERQPINAVRNIMKTRVYEELDVPYFTDRTRASLKIQEGCNNFCTFCIIPWARGLMRSRDGKEVIKQAQQLVDAGYKEIVLTGIHTGGYGEDIKDYNLAGLLRDMEAEVGGLKRLRISSIEASQISDEVIEVLDKSEVVVRHLHIPLQSGSNTVLKRMRRKYTMEFFQERLDRLKEALPGLAITSDVIVGFPGETEEEFMETYNFIKENRFSELHVFPYSKRTGTPAARMEDQVPEDVKNDRVHRLIELSNQLAKEYASAFEGEVLEIIPEEQFKDGDREGLYVGYTDNYLKIVFEGSEELIGKLVKVKITKAGYPYNEAQFVRVLEDDVKKESASA”, “soluble”.
